Experimental data from article PMC11831279.

Columns and labels:
[1] = target: PEDV spike ectodomain (S-ECD, amino acids 1 to 1325) fused with a T4 foldon at the C-terminus (porcine epidemic diarrhea virus (strain dndz) | bacteriophage T4 (printed as T4)); assay: SEC
[2] = target: PEDV spike ectodomain (S-ECD, amino acids 1 to 1325) fused with a T4 foldon at the C-terminus (porcine epidemic diarrhea virus (strain dndz) | bacteriophage T4 (printed as T4)); assay: transmission electron microscopy; TEM of the purified S protein

With “PEDV spike ectodomain (S-ECD, amino acids 1 to 1325) fused with a T4 foldon at the C-terminus (domain or fragment)” the stoichiometry N [1] was 3 and the stoichiometry N [2] was 3.
